Assay results reported in US20200190473A1, “Plasmacytoid Dendritic Cells Having Immune Tolerance, and Method for Producing Same” (QURATIS INC., priority 2017, published 2020).

Tests used:
[1] = target: TLR2 receptor (Mus musculus, UniProt Q9QUN7); format: binding
[2] = tested on: TLR2 receptor; format: binding, mouse; conditions: 5 μg/ml, 2 hours; compared to untreated group
[3] = tested on: plasmacytoid dendritic cells; format: cell-based, mouse; conditions: pDC differentiated with TLR agonist on day 3, stimulated with ODN1826 (1 μg/ml), 24 hours, ELISA; vs conventional pDC

Sequence of TLR2 receptor (Mus musculus, UniProt Q9QUN7) (Q9QUN7 25-784): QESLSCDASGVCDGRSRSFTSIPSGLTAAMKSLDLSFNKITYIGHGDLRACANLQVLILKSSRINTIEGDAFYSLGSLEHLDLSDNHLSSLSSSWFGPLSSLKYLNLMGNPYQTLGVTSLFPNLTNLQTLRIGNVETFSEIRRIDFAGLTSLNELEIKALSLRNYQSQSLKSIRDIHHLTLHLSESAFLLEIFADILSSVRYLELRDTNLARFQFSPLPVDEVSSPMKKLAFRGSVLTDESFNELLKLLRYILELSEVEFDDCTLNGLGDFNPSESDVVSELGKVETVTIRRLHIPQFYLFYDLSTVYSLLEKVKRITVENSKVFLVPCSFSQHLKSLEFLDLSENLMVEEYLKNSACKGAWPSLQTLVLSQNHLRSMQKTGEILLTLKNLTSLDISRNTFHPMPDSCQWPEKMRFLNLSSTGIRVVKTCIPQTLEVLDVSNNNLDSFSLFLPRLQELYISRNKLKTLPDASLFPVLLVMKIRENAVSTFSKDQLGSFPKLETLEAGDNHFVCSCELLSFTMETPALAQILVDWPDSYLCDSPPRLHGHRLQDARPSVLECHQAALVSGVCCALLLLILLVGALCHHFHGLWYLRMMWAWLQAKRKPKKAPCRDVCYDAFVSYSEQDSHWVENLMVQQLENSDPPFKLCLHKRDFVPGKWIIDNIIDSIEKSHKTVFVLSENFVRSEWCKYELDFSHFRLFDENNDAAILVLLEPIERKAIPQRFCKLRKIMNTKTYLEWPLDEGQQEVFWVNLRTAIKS

B1: Rv1411c protein: His-labeled protein derived from M tuberculosis, confirmed as TLR2 agonist (protein, UniProt P9WK45 27-236, looked up)
Lipoarabinomannan carrier …: CSSGSKPSGGPLPDAKPLVEEATAQTKALKSAHMVLTVNGKIPGLSLKTLSGDLTTNPTAATGNVKLTLGGSDIDADFVVFDGILYATLTPNQWSDFGPAADIYDPAQVLNPDTGLANVLANFADAKAEGRDTINGQNTIRISGKVSAQAVNQIAPPFNATQPVPATVWIQETGDHQLAQAQLDRGSGNSVQMTLSKWGEKVQVTKPPVS
modifications: His tag
notes: His-labeled protein derived from M tuberculosis, confirmed as TLR2 agonist
binding to TLR2 receptor [1]: binds to the TLR2 receptor | binding to wild-type dendritic cells (WT) [1]: increased binding | binding strength to TLR2 knockout-derived dendritic cells (TLR2−/−) [2]: the same as that in the untreated experimental group | expression level of IFN-α [3]: drastically reduced in a concentration-dependent manner | expression level of IFN-β [3]: drastically reduced in a concentration-dependent manner | expression level of IL-10 [3]: marked increase in a concentration-dependent manner | expression level of IL-12p70 [3]: drastically reduced in a concentration-dependent manner | expression level of TNF-α [3]: drastically reduced in a concentration-dependent manner
